Measured values: publication PMC10844655, “G-quadruplexes promote the motility in MAZ phase-separated condensates to activate CCND1 expression and contribute to hepatocarcinogenesis”
Numbering of substitutions follows the chain as printed.

Legend:
MAZ WT [1] = molecular target: T1, MAZ WT (human, UniProt P56270 1-477); assay: EMSA; KCl-annealed; Binding buffer 250 mM HEPES, 500 mM KCl, 20 mM MgSO4, 10 mM DTT pH 8.0 (so in the source), on ice 30 min; G4 oligos annealed in 50 mM Tris-HCl, 50 mM KCl, 40% PEG200; 8% native PAGE (G4 gels with 100 mM KCl, 40% PEG200); settings: protein: recombinant, tags: His6 (also mCherry-His6 fusion), label: FAM
T1 sequence: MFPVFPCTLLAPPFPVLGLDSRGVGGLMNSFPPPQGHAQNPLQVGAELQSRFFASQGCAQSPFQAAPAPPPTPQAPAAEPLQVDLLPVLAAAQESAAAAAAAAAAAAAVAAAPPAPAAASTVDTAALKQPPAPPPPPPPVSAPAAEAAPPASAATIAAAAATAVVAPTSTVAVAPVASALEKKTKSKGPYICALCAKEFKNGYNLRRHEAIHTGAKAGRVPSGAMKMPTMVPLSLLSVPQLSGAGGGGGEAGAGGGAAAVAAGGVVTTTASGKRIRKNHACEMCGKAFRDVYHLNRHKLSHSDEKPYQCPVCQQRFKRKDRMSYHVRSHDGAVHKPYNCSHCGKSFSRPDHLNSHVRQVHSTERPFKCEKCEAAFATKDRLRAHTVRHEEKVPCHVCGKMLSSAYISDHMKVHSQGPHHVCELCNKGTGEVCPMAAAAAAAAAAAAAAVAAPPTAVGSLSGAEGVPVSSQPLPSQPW

MAZ WT [2] = molecular target: T1, MAZ WT; assay: competition; unlabeled WT vs FAM-WT; Binding buffer 250 mM HEPES, 500 mM KCl, 20 mM MgSO4, 10 mM DTT pH 8.0 (so in the source), on ice 30 min; G4 oligos annealed in 50 mM Tris-HCl, 50 mM KCl, 40% PEG200; 8% native PAGE (G4 gels with 100 mM KCl, 40% PEG200); settings: protein: recombinant; tags: His6 (also mCherry-His6 fusion); label: FAM; G4 parallel, intra- and/or intermolecular
MAZ(ZF2-4) = molecular target: T2, MAZ(ZF2-4) (human, UniProt P56270 279-360); assay: EMSA; Binding buffer 250 mM HEPES, 500 mM KCl, 20 mM MgSO4, 10 mM DTT pH 8.0 (so in the source), on ice 30 min; G4 oligos annealed in 50 mM Tris-HCl, 50 mM KCl, 40% PEG200; 8% native PAGE (G4 gels with 100 mM KCl, 40% PEG200); settings: protein: recombinant; tags: mCherry; His6; label: FAM; G4 parallel, intra- and/or intermolecular
T2 sequence: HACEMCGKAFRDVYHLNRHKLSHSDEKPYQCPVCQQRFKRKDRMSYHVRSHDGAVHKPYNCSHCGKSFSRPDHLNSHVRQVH

MAZ(ZF2-3) = molecular target: T3, MAZ(ZF2-3) (human, UniProt P56270 279-329); assay: as above; settings: protein: recombinant; tags: mCherry; His6; label: FAM; G4 parallel, intra- and/or intermolecular
T3 sequence: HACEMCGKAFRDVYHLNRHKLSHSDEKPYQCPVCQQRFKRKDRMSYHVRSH

MAZ(ZF4) = molecular target: T4, MAZ(ZF4) (human, UniProt P56270 337-360); assay: as above; settings: protein: recombinant; tags: mCherry; His6; label: FAM; G4 parallel, intra- and/or intermolecular
T4 chain: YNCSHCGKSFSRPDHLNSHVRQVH

MED1-IDR = MED1-IDR (UniProt Q15648 948-1574); assay: as above; settings: protein: recombinant, tags: EGFP, His6, label: FAM
BRD4-IDR = BRD4-IDR (UniProt O60885 674-1351); assay: as above; settings: protein: recombinant, tags: EGFP, His6, label: FAM
MAZ(ZF3-4) = molecular target: T5, MAZ(ZF3-4) (human, UniProt P56270 307-360); assay: as above; settings: protein: recombinant; tags: mCherry; His6; label: FAM; G4 parallel, intra- and/or intermolecular
T5 sequence: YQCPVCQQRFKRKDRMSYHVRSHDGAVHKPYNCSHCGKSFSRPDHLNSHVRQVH

MAZ WT [3] = molecular target: T1, MAZ WT; assay: as above; settings: protein: recombinant, tags: His6 (also mCherry-His6 fusion), label: FAM
[4] = G4 parallel, intra- and/or intermolecular

MED1-IDR, sequence (Q15648 948-1574): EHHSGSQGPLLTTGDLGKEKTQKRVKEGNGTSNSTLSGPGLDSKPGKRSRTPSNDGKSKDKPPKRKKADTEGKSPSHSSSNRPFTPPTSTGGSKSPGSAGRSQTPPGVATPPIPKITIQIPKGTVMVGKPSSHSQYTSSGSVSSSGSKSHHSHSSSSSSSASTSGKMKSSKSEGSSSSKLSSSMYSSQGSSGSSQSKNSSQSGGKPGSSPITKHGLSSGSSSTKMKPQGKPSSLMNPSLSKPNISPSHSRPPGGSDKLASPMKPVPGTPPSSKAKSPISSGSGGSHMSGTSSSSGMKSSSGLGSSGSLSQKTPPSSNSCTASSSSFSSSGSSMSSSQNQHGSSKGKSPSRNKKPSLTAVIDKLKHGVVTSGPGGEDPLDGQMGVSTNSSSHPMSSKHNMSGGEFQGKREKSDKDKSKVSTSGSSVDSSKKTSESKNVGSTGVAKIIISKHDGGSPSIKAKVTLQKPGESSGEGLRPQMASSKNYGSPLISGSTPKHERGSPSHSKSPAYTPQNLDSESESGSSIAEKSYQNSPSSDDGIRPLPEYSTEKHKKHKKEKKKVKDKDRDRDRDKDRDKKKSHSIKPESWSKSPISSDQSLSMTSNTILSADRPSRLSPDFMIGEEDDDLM

B1: CCND1-G4 Mut2 (structured_DNA)
DNA: ATGGGAGCGAGAGGAGGGCGGGGGCGGACGCAGGAGGAGGGGGCGCGGGCG
B1: binds (MAZ WT [1]; intermolecular parallel G4).

B2: CCND1-G4 WT (structured_DNA)
DNA: B1 DNA with A10G, A15G, A28G, A35G
B2: binds (MAZ WT [2]); binds (MAZ(ZF2-4)); no binding (MAZ(ZF2-3)). B2: no binding (MAZ(ZF4)); binds (MED1-IDR; [4]); binds (BRD4-IDR; [4]). B2: no binding (MAZ(ZF3-4)).

B3: MYC-G4 (Table S2) (structured_DNA)
DNA: TGAGGGTGGGTAGGGTGGGTAA
B3: binds (MAZ WT [3]; G4 parallel, 3 quartets).

B4: MYB-G4 (structured_DNA)
DNA: GGAGGAGGAGGAGGAGGAGGAGGA
B4: binds (MAZ WT [3]; 2 G4s with two quartets).

B5: BS3 (dsDNA)
DNA 1: GGGGGGCGGGGGCG
DNA 2: CGCCCCCGCCCCCC
B5: binds (MAZ WT [3]; blunt).

B6: BS2 (dsDNA)
DNA 1: AGCGGGAGGGGGGC
DNA 2: GCCCCCCTCCCGCT
B6: binds (MAZ WT [3]; blunt).

B7: BCL2-G4 (structured_DNA)
DNA: GGGCGCGGGAGGAATTGGGCGGG
B7: binds (MAZ WT [3]; G4 hybrid, 3 quartets).

B8: MDM2-G4 (structured_DNA)
DNA: GGGGCGCGGGGCGCGGGGCATGGGG
B8: binds (MAZ WT [3]; G4 antiparallel, 4 quartets).

B9: TEL-G4 (structured_DNA)
DNA: TAGGGTTAGGGTTAGGGTTAGGGTTAG
B9: binds (MAZ WT [3]; G4 hybrid, 3 quartets).

B10: BS1 (dsDNA)
DNA 1: AGGGGGAGGGGGCG
DNA 2: CGCCCCCTCCCCCT
B10: binds (MAZ WT [3]; blunt).

B11: CCND1-G4 Mut1 (ssDNA)
DNA: ATGAGAGCGAGAGAGAGACGAGAGCGAGCGCAGAGAGAGAGAGCGCGAGCG
B11: no binding (MED1-IDR; no G4); no binding (BRD4-IDR; no G4); no binding (MAZ WT [1]; no G4).
